Experimental data from patent US20170355769A1 (AbbVie / Abbott, published 2017).

What was measured:
Human full length B7-H3 [1] = biological target: T1, Human full length B7-H3 (human, UniProt Q5ZPR3 29-534); assay: cell-based or functional assay
T1 sequence: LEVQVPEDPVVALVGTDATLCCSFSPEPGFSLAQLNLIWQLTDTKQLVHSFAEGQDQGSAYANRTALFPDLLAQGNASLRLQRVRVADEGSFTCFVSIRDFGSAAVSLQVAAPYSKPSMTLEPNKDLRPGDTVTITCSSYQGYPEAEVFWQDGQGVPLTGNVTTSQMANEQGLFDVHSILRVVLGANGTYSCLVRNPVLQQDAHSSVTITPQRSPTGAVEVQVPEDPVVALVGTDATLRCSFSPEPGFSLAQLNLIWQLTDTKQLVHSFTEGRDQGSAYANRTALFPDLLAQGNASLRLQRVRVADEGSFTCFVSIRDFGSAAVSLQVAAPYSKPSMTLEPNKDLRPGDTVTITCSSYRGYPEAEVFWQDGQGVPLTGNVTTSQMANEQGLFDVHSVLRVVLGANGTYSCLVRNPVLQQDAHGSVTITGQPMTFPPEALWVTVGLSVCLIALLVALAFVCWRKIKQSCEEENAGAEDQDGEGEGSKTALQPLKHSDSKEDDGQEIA

[2] = biological target: T2, Cynomolgous B7-H3 on cells (cynomolgus); assay: FACS, 3T12 transfectants
T2 construct: whole, on cells; also called cyB7-H3; cyno B7-H3

Human full length B7-H3 [3] = biological target: T1, Human full length B7-H3; assay: FACS, 3T12 transfectants
[4] = biological target: T3, hB7-H3 (ELISA antigen of Tables 17 and 20) (human, UniProt Q5ZPR3 29-466, limits assumed); assay: ELISA
T3 sequence: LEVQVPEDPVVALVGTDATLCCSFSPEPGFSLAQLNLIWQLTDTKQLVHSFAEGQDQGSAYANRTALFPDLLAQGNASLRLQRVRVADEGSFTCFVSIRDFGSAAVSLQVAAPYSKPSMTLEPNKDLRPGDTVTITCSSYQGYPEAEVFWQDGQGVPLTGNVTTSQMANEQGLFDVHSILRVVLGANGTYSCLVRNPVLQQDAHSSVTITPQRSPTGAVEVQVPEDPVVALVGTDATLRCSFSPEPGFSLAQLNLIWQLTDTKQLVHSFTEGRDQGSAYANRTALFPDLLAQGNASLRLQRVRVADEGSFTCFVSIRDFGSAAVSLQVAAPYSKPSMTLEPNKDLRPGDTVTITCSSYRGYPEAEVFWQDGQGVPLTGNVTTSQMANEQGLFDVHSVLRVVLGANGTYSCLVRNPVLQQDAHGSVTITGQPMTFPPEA

Human full length B7-H3 [5] = biological target: T1, Human full length B7-H3; assay: FACS (Example 6 method)
Protocol: Cells were harvested from flasks when approximately 80% confluent using Gibco® Cell Dissociation Buffer. Cells were washed once in PBS/1% FBS (FACS buffer) then resuspended at 2.5×10⁶ cells/mL in FACS buffer. 100 μL of cells/well were added to a round bottom 96-well plate. 10 μL of a 10× concentration of mAb/ADC (final concentrations are indicated the figures). Wells were washed twice with FACS buffer and resuspended in 50 μL of secondary Ab (AlexaFluor 488) diluted in FACS buffer. The plate was incubated at 4° C. for one hour and washed twice with FACS buffer. Cells were resuspended in 100 μL of PBS/1% formaldehyde and analyzed on a Becton Dickinson LSRII flow cytometer. Data was analyzed using WinList flow cytometry analysis software.
These variants were further characterized for binding by SPR and as ADCs conjugated to the Bcl-xL inhibitor synthon (linker warhead) CZ. […] An ADC comprising chAb3 conjugated to synthon CZ was used as a control.

Human full length B7-H3 [6] = biological target: T1, Human full length B7-H3; assay: FACS, 3T12 transfectants; remark: listed apart in the source
Human full length B7-H3 [7] = biological target: T1, Human full length B7-H3; assay: FACS

B1: huAb3v2.6-CZ (antibody, human IgG1, kappa, L234A L235A, V domains shown)
VH: EVQLVQSGAEVKKPGSSVKVSCKASGYTFSSYWMHWVRQAPGQGLEWIGLIHPESGSTNYNEMFKNRATLTVDRSTSTAYMELSSLRSEDTAVYYCAGGGRLYFDYWGQGTTVTVSS
VL: DIVMTQSPLSLPVTPGEPASISCRSSQSLVHSNQDTYLRWYLQKPGQSPQLLIYKVSNRFSGVPDRFSGSGSGTDFTLKISRVEAEDVGVYYCSQSTHVPYTFGGGTKVEIKR
modifications: synthon CZ on reduced interchain Cys
Which “EC50 nM H1650 (tumor cell cytotoxicity)” value (Human full length B7-H3 [1]) does the source give for B1 here?
The value was 0.4 nM.

And the EC50 [2]?
The EC50 was 3.31 nM.

What about the EC50 (Human full length B7-H3 [3]) of the same binder?
The EC50 was 5.64 nM.

What about the EC50 [4] of the same binder?
The EC50 was 0.09 nM.

B2: huAb3v2.2-CZ (antibody, V domains shown)
VH: EVQLVQSGAEVKKPGSSVKVSCKASGYTFSSYWMHWVRQAPGQGLEWIGLIHPWSGSTNYNEMFKNRATLTVDRSTSTAYMELSSLRSEDTAVYYCAGGGRLYFDYWGQGTTVTVSS
VL: DIVMTQSPLSLPVTPGEPASISCRSSQSLVHSNRDTYLRWYLQKPGQSPQLLIYKVSNRFSGVPDRFSGSGSGTDFTLKISRVEAEDVGVYYCSQSTHVPYTFGGGTKVEIK
modifications: synthon CZ on reduced interchain Cys
notes: ADC, DAR 0.7
How did the EC50 [2] turn out when B2 was run?
The EC50 was 3.68 nM.

And the EC50 (Human full length B7-H3 [3])?
Its EC50 is 5.29 nM.

And the EC50 [4]?
The EC50 was 0.1 nM.

B3: huAb3v2-CZ (antibody, V domains shown)
VH: EVQLVQSGAEVKKPGSSVKVSCKASGYTFSSYWMHWVRQAPGQGLEWIGLIHPDSGSTNYNEMFKNRATLTVDRSTSTAYMELSSLRSEDTAVYYCAGGGRLYFDYWGQGTTVTVSS
VL: DIVMTQSPLSLPVTPGEPASISCRSSQSLVHSNGDTYLRWYLQKPGQSPQLLIYKVSNRFSGVPDRFSGSGSGTDFTLKISRVEAEDVGVYYCSQSTHVPYTFGGGTKVEIK
modifications: synthon CZ on reduced interchain Cys
With B3 as the binder, how does the EC50 (Human full length B7-H3 [5]) read?
The EC50 was 0.73 nM.

What about the EC50 [2] of the same binder?
Its EC50 is 2.87 nM.

What about the EC50 (Human full length B7-H3 [3]) of the same binder?
The EC50 was 5.11 nM.

What about the EC50 [4] of the same binder?
Its EC50 is 0.44 nM.

B4: huAb3v2.8 (antibody, V domains shown)
VH: EVQLVQSGAEVKKPGSSVKVSCKASGYTFSSYWMHWVRQAPGQGLEWIGLIHPISGSTNYNEMFKNRATLTVDRSTSTAYMELSSLRSEDTAVYYCAGGGRLYFDYWGQGTTVTVSS
VL: DIVMTQSPLSLPVTPGEPASISCRSSQSLVHSNRDTYLRWYLQKPGQSPQLLIYKVSNRFSGVPDRFSGSGSGTDFTLKISRVEAEDVGVYYCSQSTHVPYTFGGGTKVEIK
notes: humanized IgG
Does B4 bind (Human full length B7-H3 [6])?
Result: binds

B5: huAb3v2.9-CZ (antibody, V domains shown)
VH: EVQLVQSGAEVKKPGSSVKVSCKASGYTFSSYWMHWVRQAPGQGLEWIGLIHPISGSTNYNEMFKNRATLTVDRSTSTAYMELSSLRSEDTAVYYCAGGGRLYFDYWGQGTTVTVSS
VL: DIVMTQSPLSLPVTPGEPASISCRSSQSLVHSNQDTYLRWYLQKPGQSPQLLIYKVSNRFSGVPDRFSGSGSGTDFTLKISRVEAEDVGVYYCSQSTHVPYTFGGGTKVEIK
modifications: synthon CZ on reduced interchain Cys
notes: ADC, DAR 2.7
With B5 as the binder, how does the EC50 [2] read?
Its EC50 is 4.64 nM.

And the EC50 (Human full length B7-H3 [3])?
The EC50 was 6.16 nM.

What about the EC50 [4] of the same binder?
Its EC50 is 0.16 nM.

B6: huAb3v2.9 (antibody, V domains shown)
VH: EVQLVQSGAEVKKPGSSVKVSCKASGYTFSSYWMHWVRQAPGQGLEWIGLIHPISGSTNYNEMFKNRATLTVDRSTSTAYMELSSLRSEDTAVYYCAGGGRLYFDYWGQGTTVTVSS
VL: DIVMTQSPLSLPVTPGEPASISCRSSQSLVHSNQDTYLRWYLQKPGQSPQLLIYKVSNRFSGVPDRFSGSGSGTDFTLKISRVEAEDVGVYYCSQSTHVPYTFGGGTKVEIK
notes: humanized IgG
Does B6 bind (Human full length B7-H3 [6])?
Result: binds

B7: huAb3v2.3 (antibody, V domains shown)
VH: EVQLVQSGAEVKKPGSSVKVSCKASGYTFSSYWMHWVRQAPGQGLEWIGLIHPWSGSTNYNEMFKNRATLTVDRSTSTAYMELSSLRSEDTAVYYCAGGGRLYFDYWGQGTTVTVSS
VL: DIVMTQSPLSLPVTPGEPASISCRSSQSLVHSNQDTYLRWYLQKPGQSPQLLIYKVSNRFSGVPDRFSGSGSGTDFTLKISRVEAEDVGVYYCSQSTHVPYTFGGGTKVEIK
notes: humanized IgG
Does B7 bind (Human full length B7-H3 [6])?
Result: binds

B8: huAb3v2.2 (antibody, V domains shown)
VH: EVQLVQSGAEVKKPGSSVKVSCKASGYTFSSYWMHWVRQAPGQGLEWIGLIHPWSGSTNYNEMFKNRATLTVDRSTSTAYMELSSLRSEDTAVYYCAGGGRLYFDYWGQGTTVTVSS
VL: DIVMTQSPLSLPVTPGEPASISCRSSQSLVHSNRDTYLRWYLQKPGQSPQLLIYKVSNRFSGVPDRFSGSGSGTDFTLKISRVEAEDVGVYYCSQSTHVPYTFGGGTKVEIK
notes: humanized IgG
Does B8 bind (Human full length B7-H3 [6])?
Result: binds

B9: huAb13v9 (antibody, V domains shown)
VH: EVQLQESGPGLVKPSETLSLTCAVSGYSITSGYSWHWIRQPPGNGLEWMGYIHSSGSTNYNPSLKSRITISRDTSKNQFSLKLSSVTAADTAVYYCARYDDYFEYWGQGTTVTVSS
VL: DIQMTQSPSSLSASVGDRVTITCKASQNVGFNVAWYQQKPGKAPKLLIYSASYRYSGVPSRFSGSGSGTDFTLTISSLQPEDFATYFCQQYNWYPFTFGQGTKLEIK
notes: humanized IgG
Does B9 bind (Human full length B7-H3 [7])?
Result: no binding

B10: huAb13v2 (antibody, V domains shown)
VH: EVQLQESGPGLVKPSETLSLTCAVSGYSITSGYSWHWIRQPPGKGLEWIGYIHSSGSTNYNPSLKSRVTISVDTSKNQFSLKLSSVTAADTAVYYCARYDDYFEYWGQGTTVTVSS
VL: DIQMTQSPSSLSASVGDRVTITCKASQNVGFNVAWYQQKPGKAPKLLIYSASYRYSGVPSRFSGSGSGTDFTLTISSLQPEDFATYYCQQYNWYPFTFGQGTKLEIK
notes: humanized IgG
Does B10 bind (Human full length B7-H3 [7])?
Result: no binding

B11: huAb13v8 (antibody, V domains shown)
VH: EVQLQESGPGLVKPSETLSLTCAVSGYSITSGYSWHWIRQPPGNGLEWMGYIHSSGSTNYNPSLKSRITISRDTSKNQFSLKLSSVTAADTAVYYCARYDDYFEYWGQGTTVTVSS
VL: DIQMTQSPSSLSASVGDRVTITCKASQNVGFNVAWYQQKPGKSPKALIYSASYRYSGVPSRFSGSGSGTDFTLTISSLQPEDFAEYFCQQYNWYPFTFGQGTKLEIK
notes: humanized IgG
Does B11 bind (Human full length B7-H3 [7])?
Result: no binding

B12: huAb13v4 (antibody, V domains shown)
VH: EVQLQESGPGLVKPSETLSLTCAVSGYSITSGYSWHWIRQPPGKGLEWIGYIHSSGSTNYNPSLKSRVTISVDTSKNQFSLKLSSVTAADTAVYYCARYDDYFEYWGQGTTVTVSS
VL: DIQMTQSPSSLSASVGDRVTITCKASQNVGFNVAWYQQKPGKAPKLLIYSASYRYSGVPSRFSGSGSGTDFTLTISSLQPEDFATYFCQQYNWYPFTFGQGTKLEIK
notes: humanized IgG
Does B12 bind (Human full length B7-H3 [7])?
Result: no binding

B13: huAb13v7 (antibody, V domains shown)
VH: EVQLQESGPGLVKPSETLSLTCAVSGYSITSGYSWHWIRQPPGNGLEWMGYIHSSGSTNYNPSLKSRITISRDTSKNQFSLKLSSVTAADTAVYYCARYDDYFEYWGQGTTVTVSS
VL: DIQMTQSPSSLSASVGDRVTITCKASQNVGFNVAWYQQKPGKAPKLLIYSASYRYSGVPSRFSGSGSGTDFTLTISSLQPEDFATYYCQQYNWYPFTFGQGTKLEIK
notes: humanized IgG
Does B13 bind (Human full length B7-H3 [7])?
Result: no binding

B14: huAb13v3 (antibody, V domains shown)
VH: EVQLQESGPGLVKPSETLSLTCAVSGYSITSGYSWHWIRQPPGKGLEWIGYIHSSGSTNYNPSLKSRVTISVDTSKNQFSLKLSSVTAADTAVYYCARYDDYFEYWGQGTTVTVSS
VL: DIQMTQSPSSLSASVGDRVTITCKASQNVGFNVAWYQQKPGKSPKALIYSASYRYSGVPSRFSGSGSGTDFTLTISSLQPEDFAEYFCQQYNWYPFTFGQGTKLEIK
notes: humanized IgG
Does B14 bind (Human full length B7-H3 [7])?
Result: no binding
